The target in test [1] is T1, human recombinant melanocortin-4 receptor (human), P32245. Kind of test: competitive inhibition of Eu-NDP-α-MSH (TRF), hMC4-R HEK-293 membranes. Particulars: remark: other sources report otherwise.
Test [2] addresses T1, human recombinant melanocortin-4 …. Kind of test: competitive inhibition of [I125]-NDP-α-MSH, hMC4-R HEK-293 membranes. The note with it: remark: other sources report otherwise.
The target of test [3] is human recombinant melanocortin-4 receptor (human) (UniProt P32245). The experiment in a line: cell-based or functional assay.
For test [4] the target is unchanged. The experiment in a line: competitive inhibition of Eu-NDP-α-MSH (TRF), hMC4-R HEK-293 membranes.
Test [5] shares this target. The experiment in a line: competitive inhibition of [I125]-NDP-α-MSH, hMC4-R HEK-293 membranes.

One may read the Ki as a dissociation constant, usually derived from enzyme kinetics or from competition with a known ligand.

Bridge positions count the residues as written; N and C are the ends. Square brackets hold non-standard residues; d marks the D form. Primed or numbered codes have the meaning given here. * marks the point of attachment. Dap(betaPro) = diaminopropionic acid with a beta-prolyl group on the side-chain amine; Cyclopentylacetyl′ = not defined here; Cyclohexylacetyl = O=C(CC1CCCCC1)*; Orn = NCCC[C@H](N)C(=O)O; Dab = NCC[C@H](N)C(=O)O; Sar = CNCC(=O)O

T1 sequence (P32245 whole entry): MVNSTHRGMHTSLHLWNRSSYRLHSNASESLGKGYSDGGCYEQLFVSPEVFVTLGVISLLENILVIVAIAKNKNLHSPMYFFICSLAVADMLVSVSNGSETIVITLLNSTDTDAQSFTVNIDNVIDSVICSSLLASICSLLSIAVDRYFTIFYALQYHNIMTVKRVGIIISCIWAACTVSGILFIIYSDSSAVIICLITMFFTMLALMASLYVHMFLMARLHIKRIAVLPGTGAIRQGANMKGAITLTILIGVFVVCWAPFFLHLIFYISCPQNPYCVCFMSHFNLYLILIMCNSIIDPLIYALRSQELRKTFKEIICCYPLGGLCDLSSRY
human recombinant melanocortin-4 receptor (human), sequence (P32245 whole entry): as above

B1: Ac-Arg-cyclo(Asp-Dap-D-Phe-Arg-Trp-Lys)-NH2 (peptide)
peptide: RDXFRWK
HELM: PEPTIDE1{[ac].R.D.[NC[C@H](N[*:1])C(=O)[*:2]].[dF].R.W.K.[am]}$PEPTIDE1,PEPTIDE1,3:R3-8:R3$$$V2.0
SMILES: CC(=O)N[C@@H](CCCNC(=N)N)C(=O)N[C@H]1CC(=O)NCCCC[C@@H](C(N)=O)NC(=O)[C@H](Cc2c[nH]c3ccccc23)NC(=O)[C@H](CCCNC(=N)N)NC(=O)[C@@H](Cc2ccccc2)NC(=O)[C@H](CN)NC1=O
For the molecule B1, the Ki in test [1] was found to be 80 nM.

B2: Cyclopentylacetyl-Arg-cyclo(Asp-Dab-D-Phe-Arg-Trp-Lys)-NH2 (peptide)
peptide: {Cyclopentylacetyl′}-RD[Dab][dF]RWK-NH2
modifications: lactam 2-7
Take B2: the inhibition constant Ki in test [2] amounted to 0.8 nM.

B3: Ac-Arg-cyclo(hGlu-Dab-D-Phe-Arg-Trp-Dab)-NH2 (peptide)
peptide: RXXFRWX
modifications: N-acetyl; X2 = hGlu; X3 = Dab; D-Phe 4; X7 = Dab; side-chain lactam hGlu2-Dab7; C-terminal amide
Take B3: in test [3], the EC50 (cAMP) is 0.06 nM and the intrinsic activity (cAMP; NDP-α-MSH = 100%) turned out to be 98%. The inhibition constant (Ki) in test [4] is 2 nM.

B4: Ac-Arg-cyclo(Dab-Dab-D-Phe-Arg-Trp-hGlu)-NH2 (peptide)
peptide: RXXFRWX
modifications: N-acetyl; X2 = Dab; X3 = Dab; D-Phe 4; X7 = hGlu; side-chain lactam Dab2-hGlu7; C-terminal amide
For the molecule B4, in test [3], the EC50 (cAMP) stood at 0.065 nM and the intrinsic activity (cAMP; NDP-α-MSH = 100%) amounted to 96%. Further, the inhibition constant Ki in test [4] was found to be 4 nM.

B5: Ac-Arg-cyclo(hGlu-Dab-D-Phe-Arg-Trp-Dab)-OH (peptide)
peptide: RXXFRWX
modifications: N-acetyl; X2 = hGlu; X3 = Dab; D-Phe 4; X7 = Dab; side-chain lactam hGlu2-Dab7; C-terminal free acid (-OH)
B5: the Ki in test [5] stood at 45 nM.

B6: Cyclohexanoyl-Arg-cyclo(Asp-Dab-D-Phe-Arg-Trp-Lys)-NH2 (peptide)
peptide: Cyclohexanoyl-RD[Dab][dF]RWK-NH2
modifications: lactam 2-7
Turning to B6, the inhibition constant Ki in test [2] is 0.4 nM.

B7: Phenylacetyl-Arg-cyclo(Asp-Dab-D-Phe-Arg-Trp-Lys)-NH2 (peptide)
peptide: Phenylacetyl-RD[Dab][dF]RWK-NH2
modifications: lactam 2-7
Consider B7, for which the inhibition constant Ki in test [2] came to 2 nM.

B8: Cyclohexylacetyl-Arg-cyclo(Asp-Dab-D-Phe-Arg-Trp-Lys)-NH2 (peptide)
peptide: Cyclohexylacetyl-RD[Dab][dF]RWK-NH2
modifications: lactam 2-7
Consider B8, for which the inhibitory constant (Ki) in test [2] is 1 nM.

B9: Ac-Arg-cyclo(Asp-Sar-D-Phe-Arg-Trp-Lys)-NH2 (peptide)
peptide: Ac-RD[Sar][dF]RWK-NH2
modifications: lactam 2-7
In the case of B9, the Ki in test [2] was 15 nM.

B10: Ac-Arg-cyclo(Asp-Dab-D-Phe-Arg-Trp-Lys)-NH-cyclopropyl (peptide)
peptide: RDXFRWK
HELM: PEPTIDE1{[ac].R.D.[Dab].[dF].R.W.K.[C1CC1N[*:1]]}$PEPTIDE1,PEPTIDE1,3:R3-8:R3$$$V2.0
SMILES: CC(=O)N[C@@H](CCCNC(=N)N)C(=O)N[C@H]1CC(=O)NCCCC[C@@H](C(=O)NC2CC2)NC(=O)[C@H](Cc2c[nH]c3ccccc23)NC(=O)[C@H](CCCNC(=N)N)NC(=O)[C@@H](Cc2ccccc2)NC(=O)[C@H](CCN)NC1=O
As to B10, the Ki in test [2] was found to be 3 nM.

B11: Ac-Arg-cyclo(Asp-Dab(Glycly)-D-Phe-Arg-Trp-Lys)-NH2 (peptide)
peptide: Ac-RD[Dab](Gly)[dF]RWK-NH2
modifications: lactam 2-7
As to B11, the Ki in test [1] came out at 110 nM.

B12: Ac-Arg-cyclo(Dab-Dab-D-Phe-Arg-Trp-hGlu)-OH (peptide)
peptide: RXXFRWX
modifications: N-acetyl; X2 = Dab; X3 = Dab; D-Phe 4; X7 = hGlu; side-chain lactam Dab2-hGlu7; C-terminal free acid (-OH)
In the case of B12, the Ki in test [5] turned out to be 35 nM.

B13: Ac-Arg-cyclo(Asp-Dab(Acetyl)-D-Phe-Arg-Trp-Lys)-NH2 (peptide)
peptide: RDXFRWK
HELM: PEPTIDE1{[ac].R.D.[Dab].[dF].R.W.K.[am]}|PEPTIDE2{[ac]}$PEPTIDE1,PEPTIDE2,4:R3-1:R2|PEPTIDE1,PEPTIDE1,3:R3-8:R3$$$V2.0
SMILES: CC(=O)NCC[C@@H]1NC(=O)[C@@H](NC(=O)[C@H](CCCNC(=N)N)NC(C)=O)CC(=O)NCCCC[C@@H](C(N)=O)NC(=O)[C@H](Cc2c[nH]c3ccccc23)NC(=O)[C@H](CCCNC(=N)N)NC(=O)[C@@H](Cc2ccccc2)NC1=O
Take B13: the inhibitory constant (Ki) amounted to 33 nM in test [2] and 88 nM in test [1].

B14: Ac-Arg-cyclo(Asp-Dap(betaPro)-D-Ph-Arg-Trp-Lys)-NH2 (peptide)
peptide: Ac-RD[Dap(betaPro)][dF]RWK-NH2
modifications: lactam 2-7
Regarding B14, in test [1], the Ki was 145 nM.

B15: Ac-Arg-cyclo(Asp-Orn-D-Phe-Arg-Trp-Lys)-NH2 (peptide)
peptide: Ac-RD[Orn][dF]RWK-NH2
modifications: lactam 2-7
Take B15: the Ki in test [1] was determined as 7 nM.

B16: Ac-Arg-cyclo(Asp-Orn(Acetyl)-D-Phe-Arg-Trp-Lys)-NH2 (peptide)
peptide: Ac-RD[Orn](Ac)[dF]RWK-NH2
modifications: lactam 2-7
B16: in test [2], the Ki was 573 nM.
